Test system: K4 kissing-loop RNA reporter
Test: apparent KD of K4 kissing-loop reporter; higher = weaker reporter binding
Settings: Eterna round: R107
Protocol: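 RNA-MaP round R107: designed RNA switches with theophylline, tryptophan, arginine or FMN aptamers are transcribed on-chip within common flanks. They are titrated with a labelled K4 kissing-loop RNA reporter in RNA-MaP buffer (100 mM Tris pH 7.5, 80 mM KCl, 4 mM MgCl2), without ligand or with the indicated ligand. Median apparent KD per design.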

[1] = input ligand: theophylline 20 uM
[2] = input ligand: tryptophan 2.4 mM
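Note: bound reporter read as fluorescence of individual clusters on recovered sequencing chips by microscopy, with normalized cluster intensities fitted with a binding model.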

Row | Sequence | apparent KD of K4 kissing-loop reporter (input ligand: FMN 200 uM) [nM] | apparent KD of K4 kissing-loop reporter (input ligand: arginine 13.2 mM) [nM] | apparent KD of K4 kissing-loop reporter (input ligand: none) [nM] | apparent KD of K4 kissing-loop reporter [1] [nM] | apparent KD of K4 kissing-loop reporter [2] [nM]
1 | UUAGCCUAGCCAUAGUGAUGUUGUGGAAUACGAGGACCGGUACGGCCGCCACUCGCUCGACGGUGAUGACAUCAACGACCUUUAU [theeternabot_sameState_KL_Trp_A_38] | 312 | 304 | 311 | 314 | 285
2 | AAGGCCACGAGAAGGAGCGUGCUAUGGAGUGAUGUUCCAAUGUAGACCUAAGGUCUACAAGCACAGGUAGGUCGCUCGUGGUCAA [Omei KL Arginine B SS A v2] | 102 | 96.9 | 109 | 100 | 103
3 | GUAUCGCUAGGAGGAUAUUUCAAAUAAUAAAUAAAUGGAUAUACGGAGUGAUGUUCCGAUUUACGGAAAGAAGGCCUAGUGAUAC [FMN B 1] | 136 | 179 | 194 | 190 | 171
4 | AGUGAUAUAUGAGGAUAUGGGUUUGUUAAAGAGUUAGUUUUAGUGUUGUUUGGUUAGUGAUGUUAUUUAGAAGGCGUGAGUGAUG [foopmullin] | 97.2 | 82.5 | 76 | 115 | 72.9
5 | GAUAUAGUGAUGUUAUAUACUGAUAGACAACGAGGACCGGUACGGCCGCCACUCGAGAGGGUGAAAAUGAUGAUAAAAUAAUAAU [#01 K4 Tryptophan A Exclusion] | 341 | 283 | 341 | 374 | 269
6 | CAUACGAAGCAGUGAUGUUGCUUAUGAGAAGGAGCGCACGAAAGUGCAGGUAGGUCGCUCAGCCAUGUGGACGAAAACGUCCACA [whbob_SS_Arginine_A_sa112] | 266 | 273 | 276 | 265 | 269
7 | CCUAUCUCAUACGAUACCAGUCAAAAUAUAAUUAACCAGUGAUGUUGGAUUUACCAAGGAGACCCUUGGCAGCGUAUGGGAUAGG [Ex Theophylline B K4 18] | 387 | 412 | 410 | 517 | 540
8 | GGGAGUAGUGCGGCCGCCACUGAGAAAGAAGAAGAAUAUAGUGAUGUUAUAUAGGAAAGGAAGAACAGGACCGGGCAUUAGAGGG [SSTRyptB.C] | 163 | 171 | 147 | 243 | 131
9 | GCUAUGGUAGGAAGGAGCGCUACUUUGUUUUUACGAGUGAUGUUCGGUAGCAGAGUGUUAAAGCAGGUAGGUCGCCUACUAUAGC [Arginine B K4 19] | 225 | 244 | 244 | 307 | 280
10 | CAACAUCACAACUUCUUCGUCCUAGAAGACUAGGAUAUCAGGAAACUGAGAAGGAGUCUCUGCAGUGAUGUUGCAGCUAGGACGA [[K]'-[F2]'-[F1]'-[F1]-[F2]-[K1]-[K2]-[F]''_Design2b] | 231 | 216 | 185 | 266 | 219
11 | CCUAUCUCGUAGGAUACCAGACUAUGAUCUAUGAUCAAUGCCAUCACCGAGUGAUGUUCGGUCCCUUGGCAGCCUAUGAGAUGGG [#13 K4 Theophylline B Exclusion] | 166 | 147 | 159 | 221 | 154
12 | GCCUGUGCACGAAGGAGCGCCGUGACAGGUUACUGCCUUGGGCAGUGAUGUUGCUCAAUCUGGCAGGUAGGUCGCGUGCACAGGC | 132 | 145 | 166 | 138 | 102
13 | CGUGAGGACCUGAGGUGAUGUAUAGUAUCGCGAGGACCGGUACGGCCGCCACUCGUGAAGAGAAAGGAGUGAUGUUCCGUAAGGG | 474 | 470 | 470 | 677 | 138
14 | CCAUCGCUAUUCGAUACCAGUCAUUUUUUAUUUUUUUUUUUUUUUGGAGUGAUGUUCCAAGACCCUUGGCAGCGAAUAGUGAUGG [whbob_SS_Theo_B_th77] | 91.3 | 109 | 76.3 | 114 | 68.1
15 | UUAUUAUUCAGUGAUGUUGAAUUUAUUUCAGAGGAUAUGCAUAAAUGCAGAAGGCUGUAAUACUAUACUUUAAUAAAUUAAAUUU [JR_SSFMNA_Sub018] | 242 | 250 | 248 | 262 | 203
16 | AGCAGUCAACUCGAAACCAUCGAAGAUGGUCGAGGACCGGUACGGCCGCCACUCGGAGUGAUGUUCCGAAGACUGCAAAAUAAAA [#SwitchBubble 14] | 283 | 299 | 307 | 328 | 477

Row | Sequence | apparent KD of K4 kissing-loop reporter (input ligand: FMN 200 uM) [nM] | apparent KD of K4 kissing-loop reporter (input ligand: arginine 13.2 mM) [nM] | apparent KD of K4 kissing-loop reporter (input ligand: none) [nM] | apparent KD of K4 kissing-loop reporter [1] [nM] | apparent KD of K4 kissing-loop reporter [2] [nM]
17 | CGAGAAAGAGCGACUGGCGAUCUGUCUGAAGGAGCGGGUGCUAGCCCAGGUAGGUCGCAGACCUUGACGCCAGUGAUGUUGGCGG [Ritiatso] | 220 | 180 | 208 | 252 | 177
18 | AAAAUAAUCCAGUGAUGUUGGUAUCCAGAUACCAGCCACGAAAGUGGCCCUUGGCAGCUGUGGACGUACAAAAUAAGUACGUCCU [#OpenEnded 8 #StaticStem #K4Early] | 534 | 293 | 729 | 790 | 651
19 | GGAUAGGACUGAGGAUAUGGGCUAGGCAAGAAUAACUUGUCUAGCAAAUCCAUGAGGAGUGAUGUUCCAGAAGGCGGUCCUAUCG [FmnBX 1 U10+G76] | 601 | 127 | 131 | 173 | 231
20 | AGUAGUCGACAAGGAUAUACUAGGAGAGACGUUUGCACAUAACCUGCCCUACGAAGUGAUGUUUCGGUAGAAGGUGUUGGGCUGU [theeternabot_exclusion_KL_FMN_B_34] | 96.5 | 67 | 87.6 | 82.9 | 71.5
21 | UAAUCCUAGUGAUAAUAAUCAAGUGGUGGGCGAGGACCGGUACGGCCGCCACUCGAAAAUGCAGUGAUGUUGUAAUCCGGAUAAU [Exclusion - Tryptophan A (Freestyle 5)] | 798 | 874 | 1080 | 872 | 450
22 | UCGCUCGAGUAAGGAUAUCAAUAUCAAAGGUCGUAGUGAUGUUAUACCAGGCCAAUUUGGCGGUAGUGAGAAGGUACUAGCAGUU [theeternabot_sameState_KL_FMN_B_38] | 1090 | 294 | 688 | 461 | 405
23 | UGGAGUUGACGAAAAGUCAACUCCCGAGAAGGAGCGGACGAAAGUCCAGGUAGGUCGCUCACUACCAGUGAUGUUGGUACUUAAA | 138 | 220 | 181 | 213 | 138
24 | CAUUCGAAAUGCAGUGAUGUUGCAACUGAUACCAGUAUCGAAAGAUACCCUUGGCAGCGGAAAACCGCUACGUUUUUUUUGAAUG [Ex Theophylline A K4 24] | 191 | 312 | 312 | 357 | 176
25 | AAACAUUGGUCGGAUACCAGUUAGACCGAUAAGGUCAAAACUGGAGUGAUGUUCCCAAAUAACCCUUGGCAGCCGACCGAUGAAA [MAT - Same State Theophlline B - Mod of Eli - D11] | 193 | 121 | 167 | 205 | 221
26 | AGUGAUGUUUUUUUUAAGAGUGAUGUUUUUCGAGGACCGGUACGGCCGCCACUCGAGUGAUGAGUGCGGUGUUGUGAUGUUUAGU [ewmullin] | 606 | 402 | 530 | 475 | 467
27 | GCAGUGAUGUUGCUGAUGUACAGUGGGAUACGAGGACCGGUACGGCCGCCACUCGUACAGAAUUUGUUAAUACAUCGAUAAGUGA [XV] | 377 | 360 | 526 | 436 | 522
28 | UUUAUGAUGUCGGCCGCCACUGGAUUAAUAUGUGUGUAAUCUAGUUCUGAGUGAUGUUUAGAGUCCAGGACCGGGACAUUAGUUA [#12 K4 Tryptophan B Exclusion] | 719 | 476 | 652 | 832 | 700
29 | GUGCAGUGAUGUUGCACGAGGAAAGACGAUACCAGCCGUAAAUAAGGCCCUUGGCAGCGUGGGCUAGCAUAAAGUACGCUAGUCU [Mara] | 111 | 115 | 109 | 94 | 97.1
30 | CCGGCCCGGCCGGAUACCAGUGCGCCGCUGUGAACUGCGGGCCCAGAGUGAUGUUCGGGACACCCUUGGCAGCCGCCUGGGUCGC [#2 Same State - Theophylline B Attempt #26 (HarryS)] | 358 | 380 | 444 | 325 | 341
31 | UUGUUUGGUUGAGAGGUUGGGCGAGAUGAUACCAGUAUAUAAGAAUACCCUUGGCAGCAUAAGAAAGAUAUAGUGAUGUUGUAUA [SSTheophA.M] | 520 | 379 | 645 | 672 | 457
32 | AAUACCUGAGUGAUGUUCAGGGAAUCAGAAGGAGCGUCAAUUAUGACAGGUAGGUCGCUGAAGACAUGUGUGUAUACACAUGUCC [#04 K4 Arginine A Same State] | 259 | 198 | 234 | 275 | 200

Source: the supplement of paper PMC9170038
